Data taken from patent US10925971B2, “Methods of treating PRLR positive breast cancer” (Regeneron Pharmaceuticals, Inc., priority 2016, dated 2021).

Molecular target: T1, hPRLR-mmH (SEQ ID NO:406) (Homo sapiens, UniProt P16471)
T1 construct: this experiment was conducted with a truncated form of PRLR (i.e., hPRLR-mmH)
Experiment: Epitope mapping by hydrogen/deuterium exchange with MALDI-TOF MS
Type: binding
Procedure: Experiments were conducted to determine the amino acid residues of PRLR with which H1H6958N2 interacts. For this purpose hydrogen/deuterium (H/D) exchange epitope mapping was carried out. A general description of the H/D exchange method is set forth in e.g., Ehring (1999) Analytical Biochemistry 267(2):252-259; and Engen and Smith (2001) Anal. Chem. 73:256A-265A.
To map the binding epitope(s) of antibody H1H6958N2 on hPRLR via H/D exchange, a construct comprising a recombinant extracellular domain of hPRLR with a C-terminal myc-myc-hexahistidine tag (hPRLR-mmH; SEQ ID NO: SEQ ID NO:406) was buffer exchanged to PBS with a final concentration of 8 mg/mL, and antibody H1H6958N2 was covalently attached to N-hydroxysuccinimide (NHS) agarose beads (GE Lifescience)
In the ‘on-solution/off-beads’ (on-exchange in solution followed by off-exchange on beads) experiment, the hPRLR was deuterated for 5 min or 10 min in PBS buffer prepared with D2O, and then bound to H1H6958N2 beads through a 2 min incubation. The hPRLR-bound beads were washed with PBS aqueous buffer (prepared with H2O) and incubated PBS buffer for half of the on-exchange time. After the off-exchange, the bound hPRLR was eluted from beads with an ice-cold low pH TFA solution. The eluted hPRLR was then digested with immobilized pepsin (Thermo Scientific) for 5 min. The resulting peptides were desalted using ZipTip® chromatographic pipette tips and immediately analyzed by UltrafleXtreme matrix assisted laser desorption ionization time of flight (MALDI-TOF)-TOF mass spectrometry (MS).
In the ‘on-beads/off-beads’ (on-exchange on beads followed by off-exchange on beads) experiment, hPRLR was first bound to H1H6958N2 beads and then incubated for 5 min or 10 min in D2O for on-exchange. The following steps (off-exchange, pepsin digestion, and MS analysis) were carried out as described for the ‘on-solution/off-beads’ procedure. The centroid values or average mass-to-charge ratios (m/z) of all the detected peptides were calculated and compared between these two sets of experiments.
The results are summarized in Table 29 which provides a comparison of the centroid m/z values for all the detected peptides identified by liquid chromatography and MS following the H/D exchange and peptic digest procedure described above. For purposes of the present Example, a positive difference (A) of at least 0.20 m/z in both experiments indicates amino acids protected by antibody binding. Segments meeting this criterion are indicated by bold text and an asterisk (*) in Table 29. [Note that, although this experiment was conducted with a truncated form of PRLR (i.e., hPRLR-mmH; SEQ ID NO: 406), residue numbering in the far left column of Table 29 has been adjusted to correspond to the amino acid sequence of the full-length PRLR protein represented by SEQ ID NO: 404.]

[1] = hPRLR peptide residues 168-180 of SEQ ID NO: 404, Experiment II 10 min on-/5 min off-exchange
[2] = hPRLR peptide residues 169-180 of SEQ ID NO: 404, Experiment I 5 min on-/2.5 min off-exchange
[3] = hPRLR peptide residues 169-180 of SEQ ID NO: 404, Experiment II 10 min on-/5 min off-exchange
[4] = hPRLR peptide residues 170-179 of SEQ ID NO: 404, Experiment I 5 min on-/2.5 min off-exchange
[5] = hPRLR peptide residues 170-179 of SEQ ID NO: 404, Experiment II 10 min on-/5 min off-exchange
[6] = hPRLR peptide residues 170-180 of SEQ ID NO: 404, Experiment I 5 min on-/2.5 min off-exchange
[7] = hPRLR peptide residues 170-180 of SEQ ID NO: 404, Experiment II 10 min on-/5 min off-exchange
[8] = hPRLR peptide residues 191-205 of SEQ ID NO: 404, Experiment I 5 min on-/2.5 min off-exchange
[9] = hPRLR peptide residues 191-205 of SEQ ID NO: 404, Experiment II 10 min on-/5 min off-exchange
[10] = hPRLR peptide residues 192-202 of SEQ ID NO: 404, Experiment I 5 min on-/2.5 min off-exchange
[11] = hPRLR peptide residues 192-202 of SEQ ID NO: 404, Experiment II 10 min on-/5 min off-exchange
[12] = hPRLR peptide residues 192-205 of SEQ ID NO: 404, Experiment I 5 min on-/2.5 min off-exchange
[13] = hPRLR peptide residues 192-205 of SEQ ID NO: 404, Experiment II 10 min on-/5 min off-exchange
[14] = hPRLR peptide residues 206-215 of SEQ ID NO: 404, Experiment I 5 min on-/2.5 min off-exchange
[15] = hPRLR peptide residues 206-215 of SEQ ID NO: 404, Experiment II 10 min on-/5 min off-exchange
[16] = hPRLR peptide residues 206-217 of SEQ ID NO: 404, Experiment I 5 min on-/2.5 min off-exchange
[17] = hPRLR peptide residues 206-217 of SEQ ID NO: 404, Experiment II 10 min on-/5 min off-exchange
[18] = hPRLR peptide residues 206-222 of SEQ ID NO: 404, Experiment I 5 min on-/2.5 min off-exchange
[19] = hPRLR peptide residues 206-222 of SEQ ID NO: 404, Experiment II 10 min on-/5 min off-exchange
[20] = hPRLR peptide residues 236-249 of SEQ ID NO: 404, Experiment I 5 min on-/2.5 min off-exchange
[21] = hPRLR peptide residues 236-249 of SEQ ID NO: 404, Experiment II 10 min on-/5 min off-exchange
[22] = hPRLR peptide residues 238-261 of SEQ ID NO: 404, Experiment I 5 min on-/2.5 min off-exchange
[23] = hPRLR peptide residues 238-261 of SEQ ID NO: 404, Experiment II 10 min on-/5 min off-exchange
[24] = hPRLR peptide residues 241-261 of SEQ ID NO: 404, Experiment I 5 min on-/2.5 min off-exchange
[25] = hPRLR peptide residues 241-261 of SEQ ID NO: 404, Experiment II 10 min on-/5 min off-exchange
[26] = hPRLR peptide residues 250-261 of SEQ ID NO: 404, Experiment I 5 min on-/2.5 min off-exchange
[27] = hPRLR peptide residues 250-261 of SEQ ID NO: 404, Experiment II 10 min on-/5 min off-exchange

T1 sequence (P16471 with tags, fused parts or gaps): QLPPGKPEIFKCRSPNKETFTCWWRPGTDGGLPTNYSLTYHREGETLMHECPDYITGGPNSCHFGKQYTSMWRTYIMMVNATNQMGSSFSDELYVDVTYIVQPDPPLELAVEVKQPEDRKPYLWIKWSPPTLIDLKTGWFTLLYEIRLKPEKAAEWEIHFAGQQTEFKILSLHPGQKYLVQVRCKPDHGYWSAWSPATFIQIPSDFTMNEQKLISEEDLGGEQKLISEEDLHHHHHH

B1: H1H6958N2: anti-PRLR antibody, receptor blocking, human IgG1 Fc form of H2M6958N2 of Table 1; HCVR/LCVR SEQ ID NOs 290/298 (antibody, V domains shown)
VH: QVQLVESGGGVVQPGRSLRLSCGASGFTFRNYGMQWVRQGPGKGLEWVTLISFDGNDKYYADSVKGRFTISRDNSKNTLFLQMNSLRTEDTAVYYCARGGDFDYWGQGTLVTVSS
VL: DIQMTQSPSSLSASVGDRVTITCRASQDIRKDLGWYQQKPGKAPKRLIYAASSLHSGVPSRFSGSGSGTEFTLTISSLQPEDFATYYCLQHNSYPMYTFGQGTKLEIK
For B1, the “Δ (centroid m/z difference)” value (hPRLR peptide residues 168-180 of SEQ ID NO: 404, Experiment I 5 min on-/2.5 min off-exchange) was −0.06 m/z, the “centroid m/z, on-beads/off-beads” value [1] was 1633.64 m/z and the “centroid m/z, on-solution/off beads” value [1] was 1633.71 m/z. The “Δ (centroid m/z difference)” value [1] was 0.08 m/z, the “centroid m/z, on-beads/off-beads” value [2] was 1469.86 m/z and the “centroid m/z, on-solution/off beads” value [2] was 1469.67 m/z. The “Δ (centroid m/z difference)” value [2] was −0.19 m/z, the “centroid m/z, on-beads/off-beads” value [3] was 1469.67 m/z and the “centroid m/z, on-solution/off beads” value [3] was 1469.71 m/z. For the same molecule, the “Δ (centroid m/z difference)” value [3] was 0.04 m/z, the “centroid m/z, on-beads/off-beads” value [4] was 1155.35 m/z and the “centroid m/z, on-solution/off beads” value [4] was 1155.40 m/z. The “Δ (centroid m/z difference)” value [4] was 0.05 m/z, the “centroid m/z, on-beads/off-beads” value [5] was 1155.39 m/z and the “centroid m/z, on-solution/off beads” value [5] was 1155.40 m/z. The “Δ (centroid m/z difference)” value [5] was 0.01 m/z, the “centroid m/z, on-beads/off-beads” value [6] was 1341.66 m/z and the “centroid m/z, on-solution/off beads” value [6] was 1341.62 m/z. The “Δ (centroid m/z difference)” value [6] was −0.04 m/z, the “centroid m/z, on-beads/off-beads” value [7] was 1341.34 m/z and the “centroid m/z, on-solution/off beads” value [7] was 1341.49 m/z. The “Δ (centroid m/z difference)” value [7] was 0.15 m/z, the “centroid m/z, on-beads/off-beads” value [8] was 1772.03 m/z and the “centroid m/z, on-solution/off beads” value [8] was 1772.03 m/z. The “Δ (centroid m/z difference)” value [8] was −0.01 m/z, the “centroid m/z, on-beads/off-beads” value [9] was 1772.28 m/z and the “centroid m/z, on-solution/off beads” value [9] was 1772.15 m/z. The “Δ (centroid m/z difference)” value [9] was −0.13 m/z, the “centroid m/z, on-beads/off-beads” value [10] was 1284.39 m/z and the “centroid m/z, on-solution/off beads” value [10] was 1284.36 m/z. The “Δ (centroid m/z difference)” value [10] was −0.03 m/z, the “centroid m/z, on-beads/off-beads” value [11] was 1284.43 m/z and the “centroid m/z, on-solution/off beads” value [11] was 1284.32 m/z. The “Δ (centroid m/z difference)” value [11] was −0.11 m/z, the “centroid m/z, on-beads/off-beads” value [12] was 1624.98 m/z and the “centroid m/z, on-solution/off beads” value [12] was 1624.94 m/z. For the same molecule, the “Δ (centroid m/z difference)” value [12] was −0.04 m/z, the “centroid m/z, on-beads/off-beads” value [13] was 1625.17 m/z and the “centroid m/z, on-solution/off beads” value [13] was 1625.08 m/z. The “Δ (centroid m/z difference)” value [13] was −0.10 m/z, the “centroid m/z, on-beads/off-beads” value [14] was 1261.33 m/z and the “centroid m/z, on-solution/off beads” value [14] was 1261.44 m/z. For the same molecule, the “Δ (centroid m/z difference)” value [14] was 0.11 m/z, the “centroid m/z, on-beads/off-beads” value [15] was 1261.46 m/z and the “centroid m/z, on-solution/off beads” value [15] was 1261.24 m/z. For the same molecule, the “Δ (centroid m/z difference)” value [15] was −0.22 m/z, the “centroid m/z, on-beads/off-beads” value [16] was 1419.65 m/z and the “centroid m/z, on-solution/off beads” value [16] was 1419.64 m/z. For the same molecule, the “Δ (centroid m/z difference)” value [16] was −0.01 m/z, the “centroid m/z, on-beads/off-beads” value [17] was 1419.45 m/z and the “centroid m/z, on-solution/off beads” value [17] was 1419.48 m/z. For the same molecule, the “Δ (centroid m/z difference)” value [17] was 0.02 m/z, the “centroid m/z, on-beads/off-beads” value [18] was 1962.39 m/z and the “centroid m/z, on-solution/off beads” value [18] was 1962.58 m/z. The “centroid m/z, on-beads/off-beads” value [19] was 1962.63 m/z, the “centroid m/z, on-solution/off beads” value [19] was 1962.52 m/z and the “Δ (centroid m/z difference)” value [19] was −0.10 m/z. The “centroid m/z, on-beads/off-beads” value [20] was 1560.76 m/z, the “centroid m/z, on-solution/off beads” value [20] was 1560.81 m/z and the “Δ (centroid m/z difference)” value [20] was 0.05 m/z. The “centroid m/z, on-beads/off-beads” value [21] was 1560.83 m/z, the “centroid m/z, on-solution/off beads” value [21] was 1560.81 m/z and the “Δ (centroid m/z difference)” value [21] was −0.01 m/z. The “centroid m/z, on-beads/off-beads” value [22] was 2827.99 m/z, the “centroid m/z, on-solution/off beads” value [22] was 2828.15 m/z and the “Δ (centroid m/z difference)” value [22] was 0.16 m/z. The “centroid m/z, on-beads/off-beads” value [23] was 2828.17 m/z, the “centroid m/z, on-solution/off beads” value [23] was 2827.99 m/z and the “Δ (centroid m/z difference)” value [23] was −0.18 m/z. For the same molecule, the “centroid m/z, on-beads/off-beads” value [24] was 2498.74 m/z, the “centroid m/z, on-solution/off beads” value [24] was 2498.70 m/z and the “Δ (centroid m/z difference)” value [24] was −0.04 m/z. The “centroid m/z, on-beads/off-beads” value [25] was 2498.88 m/z, the “centroid m/z, on-solution/off beads” value [25] was 2498.68 m/z and the “Δ (centroid m/z difference)” value [25] was −0.20 m/z. For the same molecule, the “centroid m/z, on-beads/off-beads” value [26] was 1528.75 m/z, the “centroid m/z, on-solution/off beads” value [26] was 1528.68 m/z and the “Δ (centroid m/z difference)” value [26] was −0.06 m/z. The “centroid m/z, on-beads/off-beads” value [27] was 1528.71 m/z, the “centroid m/z, on-solution/off beads” value [27] was 1528.64 m/z and the “Δ (centroid m/z difference)” value [27] was −0.07 m/z.
